# Measured values: article PMC12820186
# B1: proCsCYP707A4 p2 probe (dsDNA)
# DNA 1: CGTCGTGTGAAGTACTTCATGGAGACGAATAAAAG
# DNA 2: CTTTTATTCGTCTCCATGAAGTACTTCACACGACG
# B2: proCsCYP707A4 p3 probe (dsDNA)
# DNA 1: TTGCCAACTAATTTCATGTTCAATCAATGAAAGTGA
# DNA 2: TCACTTTCATTGATTGAACATGAAATTAGTTGGCAA
# B3: proCsCYP707A4 p4 probe (dsDNA)
# DNA 1: GCGAACGTCGTGTGAAGTACTTCATGGAGACGAATA
# DNA 2: TATTCGTCTCCATGAAGTACTTCACACGACGTTCGC
# Target: T1, CsEIN3 DNA-binding domain (CsEIN3-BD) (cucumber, UniProt A0A0A0LXB4 1-412)
# T1 sequence: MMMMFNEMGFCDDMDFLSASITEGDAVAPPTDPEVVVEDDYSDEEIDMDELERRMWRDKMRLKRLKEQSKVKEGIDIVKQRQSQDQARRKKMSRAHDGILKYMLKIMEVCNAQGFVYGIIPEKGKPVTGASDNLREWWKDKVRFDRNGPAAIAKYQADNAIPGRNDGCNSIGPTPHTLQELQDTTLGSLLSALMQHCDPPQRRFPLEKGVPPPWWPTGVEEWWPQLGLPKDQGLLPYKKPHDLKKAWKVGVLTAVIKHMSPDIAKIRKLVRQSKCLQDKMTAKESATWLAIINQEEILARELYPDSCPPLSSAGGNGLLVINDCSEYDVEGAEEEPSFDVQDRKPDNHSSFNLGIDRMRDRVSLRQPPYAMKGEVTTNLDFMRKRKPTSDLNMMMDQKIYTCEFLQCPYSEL
# Experiment: EMSA
row,Binder,binding result
1,B1,no binding
2,B2,no binding
3,B3,no binding
